Data from patent publication US20090311265A1.

Biological target: HA of BPL-inactivated virus preparation of strain A/New Caledonia/20/99 (H1N1) (influenza A virus A/New Caledonia/20/99 (H1N1))
Experiment: ELISA, coated inactivated virus, IgG 5 µg/ml

B1: CR6329 (antibody, V domains shown)
VH: EVQLVQSGAEVKKPGSSVKVSCKASGGIFRSNSISWVRQAPGQGLEWMGGIFALFGTTDYAQKFQGRVTITADESSTTVYLELSSLTSEDTAVYYCARGSGYTTRNYFDYWGQGTLVTVSS
VL: EIVLTQSPGTLSLSPGERATLSCRASQSVSSNYLGWYQQKPGQAPRLLIYGASSRASGIPDRFSGGGSGTDFTLTISRLEPEDFAVYYCQQYGSSPLTFGGGTKVEIKR
OD 492 nm: 1.04 OD 492 nm
